From publication PMC4231769, “The Werner syndrome protein limits the error-prone 8-oxo-dG lesion bypass activity of human DNA polymerase kappa” (Nucleic Acids Research, 2014)

T1: GST-tagged hpol κ^19-526 (human DNA polymerase kappa catalytic core) (human, UniProt Q9UBT6 19-526)
T1 construct: human DNA polymerase kappa (hpol κ), residues 19-526, catalytic core; The pull-downs used GST-tagged hpol κ^19-526; The polymerase assays (functional rows) name hpol κ^19-526 without a GST tag; also called GST-hpol κ; source: recombinant, purified
T1 sequence (looked up): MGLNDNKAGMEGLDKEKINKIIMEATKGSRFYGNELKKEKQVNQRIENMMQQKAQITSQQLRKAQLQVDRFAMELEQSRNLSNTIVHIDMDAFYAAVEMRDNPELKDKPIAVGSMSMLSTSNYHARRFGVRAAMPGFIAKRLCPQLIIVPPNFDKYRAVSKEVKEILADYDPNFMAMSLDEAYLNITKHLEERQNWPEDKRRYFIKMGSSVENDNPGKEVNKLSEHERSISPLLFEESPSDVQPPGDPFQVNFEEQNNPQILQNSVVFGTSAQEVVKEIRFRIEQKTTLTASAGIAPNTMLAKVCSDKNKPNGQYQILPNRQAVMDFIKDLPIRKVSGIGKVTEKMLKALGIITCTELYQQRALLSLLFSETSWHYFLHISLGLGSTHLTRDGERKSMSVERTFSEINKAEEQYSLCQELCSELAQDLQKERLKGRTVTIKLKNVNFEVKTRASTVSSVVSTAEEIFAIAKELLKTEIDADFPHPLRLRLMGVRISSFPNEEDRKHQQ


Molecular target: T1, GST-tagged hpol κ^19-526 (human DNA …)
Assay: pull-down; GST-hpol κ^19-526 on glutathione Sepharose beads (~1200 pmol), WRN construct 1 μM (~500 pmol) in 500 μl; 25 mM HEPES pH 7.5, 0.1 M NaCl, 10% glycerol, 5 mM β-ME; 16 h at 4°C; Coomassie-stained SDS-PAGE; specific binding = fraction bound to GST-hpol κ beads divided by fraction bound to GST-coated beads
Conditions: both partners purified

Row | fold bound to GST-hpol κ beads over GST beads | binding result | Binder
1 | ~3 fold |  | WRN^949-1092 RQC domain (domain or fragment, UniProt Q14191 949-1092, looked up, source: E. coli BL21 (DE3) Gold, purified (Ni Sepharose, Glutathione Sepharose, HRV 3C cleavage); not shown: 6xHis, N-terminal, cleaved; GST, N-terminal, cleaved) MDDSEDTSWDFGPQAFKLLSAVDILGEKFGIGLPILFLRGSNSQRLADQYRRHSLFGTGKDQTESWWKAFSRQLITEGFLVEVSRYNKFMKICALTKKGRNWLHKANTESQSLILQANEELCPKKLLLPSSKTVSSGTKEHCYN
2 |  | binds | WRN^1-333 exo domain (domain or fragment, UniProt Q14191 1-333, looked up, also called WRN exo) MSEKKLETTAQQRKCPEWMNVQNKRCAVEERKACVRKSVFEDDLPFLEFTGSIVYSYDASDCSFLSEDISMSLSDGDVVGFDMEWPPLYNRGKLGKVALIQLCVSESKCYLFHVSSMSVFPQGLKMLLENKAVKKAGVGIEGDQWKLLRDFDIKLKNFVELTDVANKKLKCTETWSLNSLVKHLLGKQLLKDKSIRCSNWSKFPLTEDQKLYAATDAYAGFIIYRNLEILDDTVQRFAINKEEEILLSDMNKQLTSISEEVMDLAKHLPHAFSKLENPRRVSILLKDISENLYSLRRMIIGSTNIETELRPSNNLNLLSFEDSTTGGVQQKQI
3 | ~2 fold |  | WRN^500-1092 ATPase/RQC construct (domain or fragment, source: E. coli BL21 (DE3) Gold, purified (Ni Sepharose, Glutathione Sepharose, HRV 3C cleavage); not shown: 6xHis, N-terminal, cleaved; GST, N-terminal, cleaved) not shown
